{"source": "the Human Domainome abundance scans (Beltran et al. 2025)", "parents": {"B1": {"name": "Far upstream element-binding protein 2, residues 142 to 214; numbered along this chain, Q92945 (parent)", "chain": "RTSMTEEYRVPDGMVGLIIGRGGEQINKIQQDSGCKVQISPDSGGLPERSVSLTGAPESVQKAKMMLDDIVSR"}}, "note": "± gives the uncertainty stated by the source."}
{"variants_of": "B1", "test": "abundance fitness (aPCA) (normalised: wild type 0, dead -1); higher = more abundant; growth selection in yeast, the domain comes from the species named", "details": "Homo sapiens"}
{"variant": "R9K", "abundance fitness": "0.119 ± 0.057"}
{"variant": "R9F", "abundance fitness": "0.068 ± 0.068"}
{"variant": "R9I", "abundance fitness": "0.055 ± 0.076"}
{"variant": "R9E", "abundance fitness": "-0.094 ± 0.045"}
{"variant": "R9L", "abundance fitness": "0.076 ± 0.042"}
{"variant": "R9W", "abundance fitness": "-0.033 ± 0.044"}
{"variant": "G23C", "abundance fitness": "-0.212 ± 0.065"}
{"variant": "G23D", "abundance fitness": "-0.187 ± 0.084"}
{"variant": "G23R", "abundance fitness": "-0.11 ± 0.039"}
{"variant": "G23N", "abundance fitness": "-0.241 ± 0.12"}
{"variant": "G23F", "abundance fitness": "-0.3 ± 0.11"}
{"variant": "V71E", "abundance fitness": "-0.485 ± 0.052"}
{"variant": "V71R", "abundance fitness": "-0.224 ± 0.04"}
{"variant": "V71L", "abundance fitness": "0.001 ± 0.046"}
{"variant": "V71G", "abundance fitness": "-0.294 ± 0.039"}
{"variant": "V71P", "abundance fitness": "-0.553 ± 0.059"}
{"variant": "V71Q", "abundance fitness": "-0.296 ± 0.06"}
{"variant": "V71W", "abundance fitness": "-0.211 ± 0.051"}
{"variant": "V71F", "abundance fitness": "-0.157 ± 0.11"}
{"variant": "L53V", "abundance fitness": "-0.369 ± 0.047"}
{"variant": "L53I", "abundance fitness": "-0.09 ± 0.11"}
{"variant": "L53H", "abundance fitness": "-0.733 ± 0.12"}
{"variant": "L53P", "abundance fitness": "-0.998 ± 0.076"}
{"variant": "V60Y", "abundance fitness": "-0.763 ± 0.18"}
{"variant": "V60Q", "abundance fitness": "-0.586 ± 0.065"}
{"variant": "V60M", "abundance fitness": "-0.265 ± 0.067"}
{"variant": "E7V", "abundance fitness": "-0.194 ± 0.04"}
{"variant": "E7W", "abundance fitness": "-0.1 ± 0.043"}
{"variant": "E7K", "abundance fitness": "-0.115 ± 0.048"}
{"variant": "E7A", "abundance fitness": "-0.136 ± 0.039"}
{"variant": "E7Q", "abundance fitness": "0.017 ± 0.05"}
{"variant": "D68A", "abundance fitness": "-0.188 ± 0.044"}
{"variant": "D68K", "abundance fitness": "-0.098 ± 0.053"}
{"variant": "D68T", "abundance fitness": "-0.278 ± 0.045"}
{"variant": "D68S", "abundance fitness": "-0.138 ± 0.04"}
{"variant": "D68M", "abundance fitness": "-0.337 ± 0.054"}
{"variant": "M65A", "abundance fitness": "-0.008 ± 0.043"}
{"variant": "M65C", "abundance fitness": "0.011 ± 0.061"}
{"variant": "M65Q", "abundance fitness": "0.131 ± 0.052"}
{"variant": "M65H", "abundance fitness": "-0.066 ± 0.078"}
{"variant": "D69F", "abundance fitness": "-0.284 ± 0.092"}
{"variant": "D69A", "abundance fitness": "-0.019 ± 0.043"}
{"variant": "P11H", "abundance fitness": "-0.536 ± 0.089"}
{"variant": "P11L", "abundance fitness": "-0.362 ± 0.048"}
{"variant": "R73S", "abundance fitness": "0.055 ± 0.06"}
{"variant": "R73C", "abundance fitness": "0.108 ± 0.083"}
{"variant": "R73A", "abundance fitness": "0.034 ± 0.057"}
{"variant": "R73T", "abundance fitness": "0.124 ± 0.063"}
{"variant": "D32L", "abundance fitness": "-0.005 ± 0.05"}
{"variant": "D32A", "abundance fitness": "-0.006 ± 0.05"}
{"variant": "D32Q", "abundance fitness": "0.025 ± 0.06"}
{"variant": "D32F", "abundance fitness": "-0.364 ± 0.14"}
{"variant": "K36I", "abundance fitness": "-0.095 ± 0.074"}
{"variant": "K36P", "abundance fitness": "-0.918 ± 0.07"}
{"variant": "K36C", "abundance fitness": "-0.182 ± 0.059"}
{"variant": "K36M", "abundance fitness": "-0.03 ± 0.059"}
{"variant": "A56F", "abundance fitness": "-0.315 ± 0.084"}
{"variant": "A56D", "abundance fitness": "-0.025 ± 0.077"}
{"variant": "A56G", "abundance fitness": "-0.114 ± 0.041"}
{"variant": "A56L", "abundance fitness": "-0.1 ± 0.048"}
{"variant": "A56I", "abundance fitness": "-0.126 ± 0.11"}
{"variant": "A56E", "abundance fitness": "-0.003 ± 0.058"}
{"variant": "P47R", "abundance fitness": "-0.104 ± 0.043"}
{"variant": "P47Q", "abundance fitness": "-0.034 ± 0.06"}
{"variant": "P47I", "abundance fitness": "-0.168 ± 0.079"}
{"variant": "P47V", "abundance fitness": "-0.146 ± 0.057"}
{"variant": "P47E", "abundance fitness": "-0.06 ± 0.06"}
{"variant": "P57K", "abundance fitness": "-0.185 ± 0.071"}
{"variant": "P57D", "abundance fitness": "-0.609 ± 0.091"}
{"variant": "P57I", "abundance fitness": "-0.289 ± 0.099"}
{"variant": "P57W", "abundance fitness": "-0.24 ± 0.059"}
{"variant": "P57C", "abundance fitness": "-0.432 ± 0.082"}
{"variant": "Q31I", "abundance fitness": "-0.135 ± 0.097"}
{"variant": "Q31T", "abundance fitness": "0.015 ± 0.057"}
{"variant": "Q31D", "abundance fitness": "-0.16 ± 0.081"}
{"variant": "Q31R", "abundance fitness": "-0.069 ± 0.039"}
{"variant": "S3Y", "abundance fitness": "0.125 ± 0.073"}
{"variant": "S3I", "abundance fitness": "0.137 ± 0.067"}
{"variant": "S3H", "abundance fitness": "0.009 ± 0.068"}
{"variant": "S3L", "abundance fitness": "0.074 ± 0.041"}
{"variant": "S3V", "abundance fitness": "0.144 ± 0.039"}
{"variant": "S3P", "abundance fitness": "0.043 ± 0.043"}
{"variant": "S3C", "abundance fitness": "0.152 ± 0.055"}
{"variant": "K28M", "abundance fitness": "-0.085 ± 0.062"}
{"variant": "K28I", "abundance fitness": "-0.269 ± 0.11"}
{"variant": "K28R", "abundance fitness": "0.002 ± 0.036"}
{"variant": "K28N", "abundance fitness": "-0.256 ± 0.16"}
{"variant": "G20R", "abundance fitness": "-0.428 ± 0.042"}
{"variant": "I29M", "abundance fitness": "-0.524 ± 0.061"}
{"variant": "I29K", "abundance fitness": "-0.787 ± 0.078"}
{"variant": "I29E", "abundance fitness": "-0.736 ± 0.064"}
{"variant": "I29G", "abundance fitness": "-0.856 ± 0.044"}
{"variant": "I29V", "abundance fitness": "-0.185 ± 0.041"}
{"variant": "P41G", "abundance fitness": "-0.055 ± 0.044"}
{"variant": "P41D", "abundance fitness": "0.032 ± 0.087"}
{"variant": "P41T", "abundance fitness": "-0.05 ± 0.056"}
{"variant": "P41A", "abundance fitness": "0.007 ± 0.047"}
{"variant": "Q30H", "abundance fitness": "-0.384 ± 0.088"}
{"variant": "Q30W", "abundance fitness": "-0.507 ± 0.057"}
{"variant": "Q30R", "abundance fitness": "-0.066 ± 0.038"}
{"variant": "Q30C", "abundance fitness": "-0.12 ± 0.069"}
{"variant": "Q30N", "abundance fitness": "-0.455 ± 0.11"}
{"variant": "Q30V", "abundance fitness": "-0.132 ± 0.044"}
{"variant": "Q30Y", "abundance fitness": "-0.866 ± 0.28"}
{"variant": "A63H", "abundance fitness": "-0.528 ± 0.21"}
{"variant": "A63L", "abundance fitness": "-1.46 ± 0.13"}
{"variant": "G55F", "abundance fitness": "-1.41 ± 0.28"}
{"variant": "G55E", "abundance fitness": "-0.927 ± 0.09"}
{"variant": "G55T", "abundance fitness": "-0.732 ± 0.075"}
{"variant": "G55I", "abundance fitness": "-1.5 ± 0.28"}
{"variant": "G55V", "abundance fitness": "-1.17 ± 0.072"}
{"variant": "G55P", "abundance fitness": "-0.937 ± 0.087"}
{"variant": "G16R", "abundance fitness": "-0.078 ± 0.038"}
{"variant": "G16Q", "abundance fitness": "-0.034 ± 0.056"}
{"variant": "Q25E", "abundance fitness": "0.004 ± 0.053"}
{"variant": "Q25C", "abundance fitness": "-0.099 ± 0.12"}
{"variant": "Q25I", "abundance fitness": "-0.015 ± 0.11"}
{"variant": "Q25M", "abundance fitness": "-0.127 ± 0.095"}
{"variant": "Q25A", "abundance fitness": "-0.004 ± 0.043"}
{"variant": "Q25T", "abundance fitness": "0.022 ± 0.058"}
{"variant": "Q25P", "abundance fitness": "-0.264 ± 0.052"}
{"variant": "K62E", "abundance fitness": "-0.286 ± 0.057"}
{"variant": "K62L", "abundance fitness": "-0.169 ± 0.043"}
{"variant": "K62M", "abundance fitness": "-0.068 ± 0.057"}
{"variant": "K62W", "abundance fitness": "-0.541 ± 0.053"}
{"variant": "K62T", "abundance fitness": "-0.204 ± 0.05"}
{"variant": "K62S", "abundance fitness": "-0.194 ± 0.042"}
{"variant": "K62V", "abundance fitness": "-0.127 ± 0.046"}
{"variant": "L17H", "abundance fitness": "-0.087 ± 0.084"}
{"variant": "L17K", "abundance fitness": "-0.059 ± 0.056"}
{"variant": "L17A", "abundance fitness": "0.016 ± 0.047"}
{"variant": "L17C", "abundance fitness": "-0.118 ± 0.08"}
{"variant": "C35M", "abundance fitness": "-0.866 ± 0.082"}
{"variant": "C35P", "abundance fitness": "-0.658 ± 0.068"}
{"variant": "C35D", "abundance fitness": "-0.564 ± 0.079"}
{"variant": "C35N", "abundance fitness": "-0.914 ± 0.14"}
{"variant": "C35R", "abundance fitness": "-0.848 ± 0.045"}
{"variant": "C35V", "abundance fitness": "-0.209 ± 0.043"}
{"variant": "G45K", "abundance fitness": "-0.207 ± 0.066"}
{"variant": "G45A", "abundance fitness": "-0.211 ± 0.05"}
{"variant": "G45F", "abundance fitness": "-0.218 ± 0.081"}
{"variant": "G45T", "abundance fitness": "-0.079 ± 0.053"}
{"variant": "G45Y", "abundance fitness": "-0.299 ± 0.1"}
{"variant": "G45R", "abundance fitness": "-0.164 ± 0.042"}
{"variant": "G45E", "abundance fitness": "-0.064 ± 0.054"}
{"variant": "G45L", "abundance fitness": "-0.193 ± 0.05"}
{"variant": "G45D", "abundance fitness": "-0.102 ± 0.07"}
{"variant": "Q61N", "abundance fitness": "0.016 ± 0.12"}
{"variant": "Q61V", "abundance fitness": "-0.102 ± 0.049"}
{"variant": "Q61C", "abundance fitness": "-0.164 ± 0.071"}
{"variant": "Q61D", "abundance fitness": "-0.168 ± 0.076"}
{"variant": "Q61G", "abundance fitness": "-0.053 ± 0.044"}
{"variant": "Q61E", "abundance fitness": "0.01 ± 0.06"}
{"variant": "Q61P", "abundance fitness": "-0.618 ± 0.062"}
{"variant": "V51E", "abundance fitness": "-0.84 ± 0.076"}
{"variant": "V51A", "abundance fitness": "-0.503 ± 0.045"}
{"variant": "V51M", "abundance fitness": "-0.122 ± 0.065"}
{"variant": "I70R", "abundance fitness": "-0.568 ± 0.043"}
{"variant": "I70L", "abundance fitness": "0.051 ± 0.041"}
{"variant": "T2G", "abundance fitness": "-0.04 ± 0.044"}
{"variant": "T2M", "abundance fitness": "0.104 ± 0.053"}
{"variant": "T2D", "abundance fitness": "0.003 ± 0.078"}
{"variant": "T2L", "abundance fitness": "-0.079 ± 0.046"}
{"variant": "T2S", "abundance fitness": "0.071 ± 0.046"}
{"variant": "T2V", "abundance fitness": "0.004 ± 0.048"}
{"variant": "Q38I", "abundance fitness": "-0.038 ± 0.11"}
{"variant": "Q38G", "abundance fitness": "-0.172 ± 0.042"}
